According to article PMC5566480:

B1: Recombinant LipL32 wild type, mature form (rLipL32; 21-272) V35S (protein)
chain: GAFGGLPSLKSSFSLSESTVPGTNETVKTFLPYGSVINYYGYVKPGQAPDGLVDGNKKAYYLYVWIPAVIAEMGVRMISPTGEIGEPGDGDLVSDAFKAATPEEKSMPHWFDTWIRVERMSAIMPDQIAKAAKAKPVQKLDDDDDGDDTYKEERHNKYNSLTRIKIPNPPKSFDDLKNIDTKKLLVRGLYRISFTTYKPGEVKGSFVASVGLLFPPGIPGVSPLIHSNPEELQKQAIAAEESLKKAASDATK
B2: Recombinant LipL32 wild type, mature form (rLipL32; 21-272) F34S (protein)
chain: GAFGGLPSLKSSSVLSESTVPGTNETVKTFLPYGSVINYYGYVKPGQAPDGLVDGNKKAYYLYVWIPAVIAEMGVRMISPTGEIGEPGDGDLVSDAFKAATPEEKSMPHWFDTWIRVERMSAIMPDQIAKAAKAKPVQKLDDDDDGDDTYKEERHNKYNSLTRIKIPNPPKSFDDLKNIDTKKLLVRGLYRISFTTYKPGEVKGSFVASVGLLFPPGIPGVSPLIHSNPEELQKQAIAAEESLKKAASDATK
B3: Recombinant LipL32 wild type, mature form (rLipL32; 21-272) L36S (protein)
chain: GAFGGLPSLKSSFVSSESTVPGTNETVKTFLPYGSVINYYGYVKPGQAPDGLVDGNKKAYYLYVWIPAVIAEMGVRMISPTGEIGEPGDGDLVSDAFKAATPEEKSMPHWFDTWIRVERMSAIMPDQIAKAAKAKPVQKLDDDDDGDDTYKEERHNKYNSLTRIKIPNPPKSFDDLKNIDTKKLLVRGLYRISFTTYKPGEVKGSFVASVGLLFPPGIPGVSPLIHSNPEELQKQAIAAEESLKKAASDATK

Each binder was assayed against Recombinant human Toll-like receptor 2 (rTLR2), O60603 (assay: ELISA). Conditions: chain shown with the change;; parent: est. 0.37; read off a plot.
Sequence of Recombinant human Toll-like receptor 2 (rTLR2), O60603 (O60603 21-784): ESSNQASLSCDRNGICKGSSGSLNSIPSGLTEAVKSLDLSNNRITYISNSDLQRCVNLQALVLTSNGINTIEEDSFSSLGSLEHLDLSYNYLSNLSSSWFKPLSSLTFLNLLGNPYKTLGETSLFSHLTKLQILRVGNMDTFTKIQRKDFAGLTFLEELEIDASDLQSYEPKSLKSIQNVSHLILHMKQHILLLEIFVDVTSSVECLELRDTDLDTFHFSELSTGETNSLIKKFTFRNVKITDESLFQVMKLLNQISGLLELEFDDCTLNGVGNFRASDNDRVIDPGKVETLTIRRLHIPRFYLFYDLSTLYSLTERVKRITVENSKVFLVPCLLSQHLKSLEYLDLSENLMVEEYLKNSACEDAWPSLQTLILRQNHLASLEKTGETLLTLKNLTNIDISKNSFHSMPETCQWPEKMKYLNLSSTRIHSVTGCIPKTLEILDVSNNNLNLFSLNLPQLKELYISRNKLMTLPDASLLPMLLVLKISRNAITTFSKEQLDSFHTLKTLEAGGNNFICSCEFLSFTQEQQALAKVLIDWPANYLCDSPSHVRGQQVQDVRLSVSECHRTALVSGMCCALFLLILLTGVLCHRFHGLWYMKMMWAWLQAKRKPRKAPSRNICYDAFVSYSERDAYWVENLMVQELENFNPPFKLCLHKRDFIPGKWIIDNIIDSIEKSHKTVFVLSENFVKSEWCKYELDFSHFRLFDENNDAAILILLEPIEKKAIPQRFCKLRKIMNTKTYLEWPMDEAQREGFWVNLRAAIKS

Binder	response
B1	0.25 OD450nm
B2	0.31 OD450nm
B3	0.23 OD450nm
